Results on 94 variants are retold here after the supplement of paper PMC10567573.

The chains are these.
B1: PKD2L1 (parent)
chain: YSGGGYYLDLPGSRQGSAEALRAL
B2: CDC25B (parent)
chain: FVDILESDLKDDDAVPPGMESLIS
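Note: lentivirally expressed fusions sorted by FACS into six bins by GFP to DsRed ratio, PSI derived from sequencing read proportions per bin multiplied by bin number.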

The first series covers variants of B1. The experiment in a line: protein stability index of a GFP-peptide fusion (GPS, HEK-293T) (PSI 1-6); higher = more stable. The following applies: c terminus: a fixed tail appended.
For FSGGGYYLDLPGSRQGSAEALRAL [Y1F], the protein stability index turned out to be 2.68. Still for that read-out and setting: the result for PSGGGYYLDLPGSRQGSAEALRAL [Y1P] reads 3.49; that for MSGGGYYLDLPGSRQGSAEALRAL [Y1M], 2.99. On the same count and under the same terms, under KSGGGYYLDLPGSRQGSAEALRAL [Y1K] stands 3.16.

On to ESGGGYYLDLPGSRQGSAEALRAL [Y1E], for which the protein stability index stood at 3.75. As to ASGGGYYLDLPGSRQGSAEALRAL [Y1A], the protein stability index stood at 3.15. CSGGGYYLDLPGSRQGSAEALRAL [Y1C]: the protein stability index was determined as 2.29. On the same count and under the same terms, under QSGGGYYLDLPGSRQGSAEALRAL [Y1Q] stands 3.75; under HSGGGYYLDLPGSRQGSAEALRAL [Y1H], 3.5.

With LSGGGYYLDLPGSRQGSAEALRAL [Y1L], the protein stability index stood at 3.1. Still for that read-out and setting: the result for DSGGGYYLDLPGSRQGSAEALRAL [Y1D] reads 4.08. In the case of ISGGGYYLDLPGSRQGSAEALRAL [Y1I], the protein stability index came to 2.72. The same measure, in the same setting: the result for NSGGGYYLDLPGSRQGSAEALRAL [Y1N] reads 3.58; that for GSGGGYYLDLPGSRQGSAEALRAL [Y1G], 3.66.

In a further series the parent is B2. The series is described as above. The note with it: c terminus: a fixed tail appended.
As to FVDILESDLKDDDAVPPAMESLIS [G18A], the protein stability index turned out to be 3.03.

On to FVDILESDLKDDDAVPPLMESLIS [G18L], for which the protein stability index turned out to be 3.51.

For FVDILESDLKDDDAVPPDMESLIS [G18D], the protein stability index was determined as 3.29. Consider FVDILESDLKDDDAVPPTMESLIS [G18T], for which the protein stability index came out at 3.28. On the same count and under the same terms, the result for FVDILESDLKDDDAVPPFMESLIS [G18F] reads 2.26. Still for that read-out and setting: the result for FVDILESDLKDDDAVPPCMESLIS [G18C] reads 2.6; that for FVDILESDLKDDDAVPPPMESLIS [G18P], 3.18; that for FVDILESDLKDDDAVPPHMESLIS [G18H], 3.11. Still for that read-out and setting: under FVDILESDLKDDDAVPPNMESLIS [G18N] stands 3.23.

For FVDILESDLKDDDAVPPSMESLIS [G18S], the protein stability index is 3.06. In the case of FVDILESDLKDDDAVPPVMESLIS [G18V], the protein stability index was 2.87. Turning to FVDILESDLKDDDAVPPKMESLIS [G18K], the protein stability index came to 2.8. Same read-out and setting: under FVDILESDLKDDDAVPPYMESLIS [G18Y] stands 2.65; under FVDILESDLKDDDAVPPRMESLIS [G18R], 2.87; under FVDILESDLKDDDAVPPMMESLIS [G18M], 2.6. Still for that read-out and setting: under FVDILESDLKDDDAVPPWMESLIS [G18W] stands 2.31; under FVDILESDLKDDDAVPPQMESLIS [G18Q], 2.86.

For the variant FVDILESDLKDDDAVPPIMESLIS [G18I], the protein stability index was determined as 2.32. In the case of FVDILESDLKDDDAVPPEMESLIS [G18E], the protein stability index is 3.39. Consider FVDILESDLKDDDAVPPGMEALIS [S21A], for which the protein stability index turned out to be 2.84. Take FVDILESDLKDDDAVPPGMEGLIS [S21G]: the protein stability index turned out to be 2.61. Still for that read-out and setting: the result for FVDILESDLKDDDAVPPGMEFLIS [S21F] reads 2.5; that for FVDILESDLKDDDAVPPGMEVLIS [S21V], 2.93. As for FVDILESDLKDDDAVPPGMEPLIS [S21P], the protein stability index stood at 3.02. FVDILESDLKDDDAVPPGMEHLIS [S21H]: the protein stability index amounted to 2.67. The same measure, in the same setting: under FVDILESDLKDDDAVPPGMERLIS [S21R] stands 2.86; under FVDILESDLKDDDAVPPGMENLIS [S21N], 2.81; under FVDILESDLKDDDAVPPGMEYLIS [S21Y], 2.35. FVDILESDLKDDDAVPPGMEQLIS [S21Q]: the protein stability index is 2.83.

Consider FVDILESDLKDDDAVPPGMEELIS [S21E], for which the protein stability index worked out at 3.05. With FVDILESDLKDDDAVPPGMEDLIS [S21D], the protein stability index came out at 3.15. Take FVDILESDLKDDDAVPPGMEMLIS [S21M]: the protein stability index turned out to be 2.96. On the same count and under the same terms, the result for FVDILESDLKDDDAVPPGMETLIS [S21T] reads 2.76; that for FVDILESDLKDDDAVPPGMECLIS [S21C], 2.93.

On to FVDILESDLKDDDAVPPGMELLIS [S21L], for which the protein stability index stood at 3.43. Same read-out and setting: the result for FVDILESDLKDDDAVPPGMEILIS [S21I] reads 3.24; that for FVDILESDLKDDDAVPPGMEKLIS [S21K], 2.68; that for FVDILESDLKDDDAVPPGMEWLIS [S21W], 2.22. The same measure, in the same setting: under FVDILESDLKDDDAVPPGMTSLIS [E20T] stands 2.51; under FVDILESDLKDDDAVPPGMWSLIS [E20W], 1.78. For the variant FVDILESDLKDDDAVPPGMRSLIS [E20R], the protein stability index was 2.71. As to FVDILESDLKDDDAVPPGMDSLIS [E20D], the protein stability index amounted to 2.6.

FVDILESDLKDDDAVPPGMLSLIS [E20L]: the protein stability index was determined as 2.2. The same measure, in the same setting: the result for FVDILESDLKDDDAVPPGMISLIS [E20I] reads 2.31; that for FVDILESDLKDDDAVPPGMPSLIS [E20P], 2.44; that for FVDILESDLKDDDAVPPGMASLIS [E20A], 2.77. Still for that read-out and setting: the result for FVDILESDLKDDDAVPPGMQSLIS [E20Q] reads 3.08; that for FVDILESDLKDDDAVPPGMGSLIS [E20G], 2.48; that for FVDILESDLKDDDAVPPGMKSLIS [E20K], 2.74. Same read-out and setting: under FVDILESDLKDDDAVPPGMFSLIS [E20F] stands 1.79; under FVDILESDLKDDDAVPPGMVSLIS [E20V], 2.66; under FVDILESDLKDDDAVPPGMHSLIS [E20H], 2.69.

With FVDILESDLKDDDAVPPGMMSLIS [E20M], the protein stability index was 2.16.

As to FVDILESDLKDDDAVPPGMSSLIS [E20S], the protein stability index came to 2.43. Still for that read-out and setting: under FVDILESDLKDDDAVPPGMCSLIS [E20C] stands 2.43; under FVDILESDLKDDDAVPPGMYSLIS [E20Y], 2.12.

On to FVDILESDLKDDDAVPPGMNSLIS [E20N], for which the protein stability index amounted to 2.76. On the same count and under the same terms, the result for FVDILESDLKDDDAVPPGMESLQS [I23Q] reads 3.77; that for FVDILESDLKDDDAVPPGMESLCS [I23C], 2.93; that for FVDILESDLKDDDAVPPGMESLGS [I23G], 3.03.

As for FVDILESDLKDDDAVPPGMESLSS [I23S], the protein stability index is 3.3. FVDILESDLKDDDAVPPGMESLWS [I23W]: the protein stability index came out at 2.25. Still for that read-out and setting: under FVDILESDLKDDDAVPPGMESLTS [I23T] stands 2.91; under FVDILESDLKDDDAVPPGMESLHS [I23H], 3.56; under FVDILESDLKDDDAVPPGMESLPS [I23P], 2.96. Consider FVDILESDLKDDDAVPPGMESLKS [I23K], for which the protein stability index was found to be 2.83.

With FVDILESDLKDDDAVPPGMESLNS [I23N], the protein stability index stood at 2.6. For FVDILESDLKDDDAVPPGMESLES [I23E], the protein stability index stood at 3.57. Same read-out and setting: the result for FVDILESDLKDDDAVPPGMESLRS [I23R] reads 2.77; that for FVDILESDLKDDDAVPPGMESLYS [I23Y], 2.69.

In the case of FVDILESDLKDDDAVPPGMESLMS [I23M], the protein stability index worked out at 3.02.

As to FVDILESDLKDDDAVPPGMESLDS [I23D], the protein stability index is 3.7. FVDILESDLKDDDAVPPGMESLVS [I23V]: the protein stability index was found to be 2.65. With FVDILESDLKDDDAVPPGMESLFS [I23F], the protein stability index is 2.48. Consider FVDILESDLKDDDAVPPGMESLAS [I23A], for which the protein stability index amounted to 3.54. Consider FVDILESDLKDDDAVPPGMESLLS [I23L], for which the protein stability index stood at 3.07. As to FVDILESDLKDDDAVIPGMESLIS [P16I], the protein stability index came out at 2.44. For FVDILESDLKDDDAVMPGMESLIS [P16M], the protein stability index amounted to 2.6. Same read-out and setting: under FVDILESDLKDDDAVKPGMESLIS [P16K] stands 3; under FVDILESDLKDDDAVWPGMESLIS [P16W], 2.52.
